{"source": "patent US20140234868A1", "about": "“USE FOR GLYCOLIPOPROTEIN GINTONIN, ISOLATED AND IDENTIFIED FROM GINSENG, AS A NATURAL MEDICAL-PLANT DERIVED LIGAND” (KONKUK UNIVERSITY INDUSTRIAL COOPERATION CORP., priority 2011, published 2014)", "key": {"[1]": {"biological_target": "T1, LPA3 receptor (Homo sapiens, UniProt Q9UBY5)", "T1 construct": "host or cells: B103 rat neuroblastoma cells", "T1 sequence (Q9UBY5 1-353)": "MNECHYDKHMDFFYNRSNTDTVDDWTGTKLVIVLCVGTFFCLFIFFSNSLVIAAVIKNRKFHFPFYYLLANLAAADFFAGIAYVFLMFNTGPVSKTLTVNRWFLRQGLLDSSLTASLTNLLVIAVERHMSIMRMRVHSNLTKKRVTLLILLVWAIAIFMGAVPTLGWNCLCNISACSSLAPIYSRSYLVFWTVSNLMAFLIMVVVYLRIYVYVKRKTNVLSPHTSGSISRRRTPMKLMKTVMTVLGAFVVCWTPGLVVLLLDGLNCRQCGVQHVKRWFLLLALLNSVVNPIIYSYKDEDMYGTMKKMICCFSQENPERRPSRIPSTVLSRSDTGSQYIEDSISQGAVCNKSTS", "assay": "Intracellular free Ca2+ (Fura-2AM) in LPA3-expressing B103 cells", "format": "cell-based", "from_the_text": "(§1) LPA family receptors are endogenous to cells of most organs. B103 rat neuroblastoma cells, known as LPA receptor-null cells (Valentine et al., Biochim Biophys Acta 1780. 597-605) were transiently transfected with a plasmid (vector) carrying one of genes coding for LPA1(edg-2), LPA2(edg-4), LPA3(edg-7), LPA4, LPA5 and LPA6 receptors or a plasmid carrying none of them (empty vector). Two or three days after transfection, the cells are suspended, and made permeable. Then, the permeable cells are treated with Fura-2AM, a fluorescent dye binding to calcium, and then with gintonin, followed by spectrofluorephotometry to examine whether gintonin induces an increase in intracellular free Ca^2+ level.\n(§2) (1) preparing large quantities of plasmids carrying respective LPA family receptor genes and an empty plasmid carrying none of them through amplification and purification (maxi-preparation); (2) verifying the expression of LPA receptors wherein B103 cells are transfected with haematoglutin (HA)-tagged LPA receptors, and then subjected to Western blotting analysis using an anti-HA primary antibody and a horseradish peroxidase (HRP)-conjugated secondary antibody to develop a color; (3) verifying the expression of LPA receptors wherein B1-3 cells are transfected with haematoglutin (HA)-tagged LPA receptors, and then subjected to confocal laser microscopy using an anti-HA antibody and a fluorescence dye Cy3-conjugated secondary antibody; (4) transfecting the empty plasmid and each of the plasmids carrying LPA family receptor genes into B103 cells; (5) treating the transfected B103 cells with trypsin (0.05% trypsin with EDTA, w/v) 2-3 days post-transfection, to give a cell suspension; (6) culturing the suspended B103 cells with Fura-2AM (2.5 μM); and (7) treating the suspended B103 cells with gintonin and quantifying a change in intracellular free Ca^2+ level in a cuvette by spectrofluorephotometry using Fura-2AM.\n(§3) Human LPA (lysophosphatidic acid) receptor subtypes, orphan GPCRs (G protein coupled receptors) and plasmids carrying GPCRs were purchased from Missouri S&T resource Center (www.cDNA.org).\n(§4) The transient transfection of LPA receptor subtypes was carried out with the aid of Lipofectamine 2000 of Invitrogen. A plasmid (10.8 μg) carrying each LPA receptor (LPA1, LPA2, LPA3, LPA4, LPA5, and LPA6) was transfected into B103 cells grown in 10-cm dishes, and incubated for 2 days prior for use in experiments.\nIn this Example, gintonin, or ginsenoside Rb1 or Rg1 was examined for its ability to induce a transient increase of [Ca^2+]i in Fura-2AM-loaded B103 cells which were transfected with LPA receptors and in Fura-2AM-loaded B103 cells which were not transfected with LPA receptors. To this end, B103 cells (2˜4×10^6/ml) pre-treated with Fura-2AM were suspended in a 1.5 mM Ca^2+-containing buffer or Ca^2+-free buffer, and incubated 37° C. for 30 min, followed by analyzing intracellular calcium levels in the B103 cells in the presence of gintonin or ginsenosides.\nBriefly, B103 cells (1˜2×10^6/ml) were mixed with 2.5 μM Fura 2-AM in a Ca^2+ buffer (pH 7.4) containing NaCl 120 mM, KCl 5 mM, MgCl2 1 mM, CaCl2 1.5 mM, glucose 10 mM, and HEPES 25 mM, and a Ca^2+ free buffer (pH 7.4) containing NaCl 120 mM, KCl 5 mM, MgCl2 1 mM, EGTA 0.2 mM, glucose 10 mM, and HEPES 25 mM at 37° C. for 30 min in water bath with shaking according to the Jørgensen method, and washed three times with Ca^2+ buffer or Ca^2+ free buffer to remove excess Fura-2AM.\n[Ca^2+]i was estimated in Fura 2AM-loaded cells in suspension using an RF-5300PC intracellular ion measurement system (Shimadzu Corporation, Japan).\nBriefly, Fura 2-AM loaded cells were diluted with an experimental medium to a final density of 2˜4×10^6 cells/mL, and transferred to polystyrene cuvettes (Elkay Ultra-VU). The cells were stirred using Teflon-coated magnets, and the cuvette housing was thermostatically controlled at 37° C. The excitation wavelengths were alternated between 340 and 380 nm under computer control. […]"}, "[2]": {"biological_target": "LPA1 receptor (Homo sapiens, UniProt Q92633)", "sequence (Q92633 whole entry)": "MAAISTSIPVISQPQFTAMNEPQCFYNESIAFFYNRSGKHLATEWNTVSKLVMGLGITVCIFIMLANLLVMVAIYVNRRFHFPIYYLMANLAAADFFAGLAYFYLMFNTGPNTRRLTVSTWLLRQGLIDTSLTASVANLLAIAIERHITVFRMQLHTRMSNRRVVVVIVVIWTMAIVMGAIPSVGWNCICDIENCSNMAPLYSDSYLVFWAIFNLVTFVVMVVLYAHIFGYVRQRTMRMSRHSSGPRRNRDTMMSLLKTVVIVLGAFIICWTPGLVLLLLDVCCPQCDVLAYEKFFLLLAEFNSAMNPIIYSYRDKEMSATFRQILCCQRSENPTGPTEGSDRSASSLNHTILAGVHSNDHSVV", "assay": "Intracellular free Ca2+ (Fura-2AM) in LPA1-expressing B103 cells", "format": "cell-based", "parameters": "host or cells: B103 rat neuroblastoma cells", "from_the_text": "as §1, §2, §3, §4\nIn this Example, gintonin, or ginsenoside Rb1 or Rg1 was examined for its ability to induce a transient increase of [Ca^2+]i in Fura-2AM-loaded B103 cells which were transfected with LPA receptors and in Fura-2AM-loaded B103 cells which were not transfected with LPA receptors. […]"}, "[3]": {"test_system": "HUVECs", "assay": "HUVEC migration, Boyden chamber", "format": "cell-based, human", "settings": "70~80 min, 37° C.", "description": "To measure the effect of gintonin on cell migration, a Boyden chamber (Neuro Probe Inc., Gaithersburg, Md., USA) assay was employed (Kim et al. Biol Pharm Bull 30: 1674-1679, 2007; Lee et al. Am J Physiol Cell Physiol 278:C612-C618, 2000).\nIn the Boyden chamber (48 wells) of two compartments separated by a collagen-coated polycarbonate microporous membrane (8-μm pores), gintonin in M199 (0.1% BSA contained) was placed onto the wells of lower compartment while a HUVEC suspension was added to the wells of the upper compartment (5×10^4 cells/well). During incubation at 37° C. for 70˜80 min, the cells were allowed to migrate through the membrane into the lower compartment. Then, the chamber was disassembled, and the cells on the membrane was fixed and stained with Diff Quik (Sysmex, Kobe, Japan), and mounted on a slide."}}}
{"molecule": "Cc1noc(-c2ccc(CSCCC(=O)O)cc2)c1NC(=O)OC(C)c1ccccc1Cl", "note": "(stereo not shown) [Kil6425]", "values": [{"measurement": "effect on gintonin-induced intracellular calcium increase", "setting": "[1]; LPA3-expressing cells treated with antagonist", "result": "did not increase in intracellular calcium level even in the presence of gintonin"}, {"measurement": "effect on gintonin-induced intracellular calcium increase", "setting": "[2]; LPA1-expressing cells treated with antagonist", "result": "did not increase in intracellular calcium level even in the presence of gintonin"}]}
{"molecule": "gintonin: ginseng-derived glycolipoprotein; structural protein of ginseng major latex-like protein (MLP151) and ribonuclease-like storage proteins; crude gintonin used in tests (protein) chain 1: MGLTGKLICQTGIKSDGDVFHELFGTRPHHVPNITPANIQGCDLHEGEFGKVGSVVIWNYSIDGNAMIAKEEIVAIDEEDKSVTFKVVEGHLFEEFKSIVFSVHVDTKGEDNLVTWSIDYEKLNESVKDPTSYLDFLLSVTRDIEAHHLPK chain 2: RSDYPWAMFALRLQWPAGFCEVNNACDTKSLLNTFTIHGLYPYNAKGTPALYCDGTAFDVNSVSDFLAEMHLAWPSHETNTEDIQFWEHEWKKHGRCSEALLKQTDYFRTALAFRKAFDIVGLLNQEGIYPNNDLYRPKMIKEAIKKHLNAVPEIDFTKNENSEYVLTDINVCVNQQATRFVDCPTDDATDDYRLKFVRLPSKMKFADPRTNSII", "values": [{"measurement": "transient increase of [Ca2+]i when extracellular Ca2+ was depleted", "setting": "[1]; Ca2+-free buffer containing 0.2 mM EGTA, LPA3-expressing cells", "result": "at a greatly lowered level"}, {"measurement": "EC50", "setting": "[1]; LPA3 receptor, B103 cells, read-out: EC50, LPA receptor-mediated intracellular calcium increase", "result": "0.12 ± 0.01", "unit": "nM"}, {"measurement": "increase in intracellular calcium level", "setting": "[1]; gintonin 1 μg/ml, LPA3-expressing B103 cells", "result": "206.5 ± 11.2", "unit": "µM"}, {"measurement": "increase of intracellular calcium level in co-existence with ginsenosides", "setting": "[1]; gintonin in the presence of ginsenoside Rb1 or Rg1", "result": "induce an increase in intracellular calcium level by activating LPA receptors in spite of co-existence with the ginsenosides"}, {"measurement": "cell migration", "setting": "[3]", "result": "promoted cell migration in a concentration-dependent manner"}, {"measurement": "transient increase of [Ca2+]i when extracellular Ca2+ was depleted", "setting": "[2]; Ca2+-free buffer containing 0.2 mM EGTA, LPA1-expressing cells", "result": "at a greatly lowered level"}, {"measurement": "EC50", "setting": "[2]; LPA1 receptor, B103 cells, read-out: EC50, LPA receptor-mediated intracellular calcium increase", "result": "0.1 ± 0.02", "unit": "nM"}, {"measurement": "increase in intracellular calcium level", "setting": "[2]; gintonin 1 μg/ml, LPA1-expressing B103 cells", "result": "185.9 ± 12.8", "unit": "µM"}]}
